Where a chain is given by its changes, count along the chain named. One block for each binder: values may come before it.
How the values were obtained:
[1] = target: human TLR4 in human whole blood (human); assay: cell-based or functional assay
[2] = target: T1, soluble histidine-tagged form of human TLR4/MD2 complex (human, UniProt Q9Y6Y9 19-160); assay: competitive ELISA; 15C1 reference EC50 divided by variant EC50
Description: (§1) The VH and VL cDNA sequences in their appropriate expression vectors were transfected into mammalian cells using the Fugene 6 Transfection Reagent (Roche, Basel, Switzerland). Briefly, Peak cells were cultured in 6-well plates at a concentration of 6×10⁵ cells per well in 2 mL culture media containing fetal bovine serum. The expression vectors, encoding the candidate VH and VL sequences, were co-transfected into the cells using the Fugene 6 Transfection Reagent according to manufacturer's instructions. One day following transfection, the culture media was aspirated, and 3 mL of fresh serum-free media was added to cells and cultured for three days at 37° C. Following three days culture period, the supernatant was harvested for IgG purified on protein G-Sepharose 4B fast flow columns (Sigma, St. Louis, Mo.) according to manufacturer's instructions. Briefly, supernatants from transfected cells were incubated overnight at 4° C. with ImmunoPure (G) IgG binding buffer (Pierce, Rockford Ill.). Samples were then passed over Protein G-Sepharose 4B fast flow columns and the IgG consequently purified using elution buffer. The eluted IgG fraction was then dialyzed against PBS and the IgG content quantified by absorption at 280 nm. Purity and IgG integrity were verified by SDS-PAGE. Relative binding potency of 1E11 variants was assessed by competitive ELISA. Briefly, 15C1 antibody was coated overnight in a 96-well Maxisorp plate and then blocked with PBS-BSA. The 15C1 reference antibody and affinity matured variants of 1E11 were added to the plate at a fixed concentration and a 3.5-fold serial dilution of the samples was performed. Then, soluble histidine-tagged form of human TLR4/MD2 complex was added to the plate at a fixed concentration. After incubation one hour at 37° C., the plate was washed and a solution of Penta-His-HRP antibody was distributed, this step was followed by an additional incubation time of one hour at 37° C. Finally, the plate was washed and TMB was added for colorimetric revelation, the enzymatic reaction is stopped by H₂SO₄ solution. The results were determined according to the absorbance at 450 nm. The relative binding potency was calculated by dividing the reference EC₅₀ with affinity matured variants EC₅₀ (Table 8).

[3] = target: T2, cynomolgus monkey TLR4 expressed on stably transfected CHO-K1 cells (cynomolgus monkey, UniProt Q9TSP2 24-826 (Papio anubis entry)); assay: summary grade (species binding potential); assay not given
T2 construct: Transfected alone; also called CHO cells expressing the cynomolgus monkey TLR4
T2 chain: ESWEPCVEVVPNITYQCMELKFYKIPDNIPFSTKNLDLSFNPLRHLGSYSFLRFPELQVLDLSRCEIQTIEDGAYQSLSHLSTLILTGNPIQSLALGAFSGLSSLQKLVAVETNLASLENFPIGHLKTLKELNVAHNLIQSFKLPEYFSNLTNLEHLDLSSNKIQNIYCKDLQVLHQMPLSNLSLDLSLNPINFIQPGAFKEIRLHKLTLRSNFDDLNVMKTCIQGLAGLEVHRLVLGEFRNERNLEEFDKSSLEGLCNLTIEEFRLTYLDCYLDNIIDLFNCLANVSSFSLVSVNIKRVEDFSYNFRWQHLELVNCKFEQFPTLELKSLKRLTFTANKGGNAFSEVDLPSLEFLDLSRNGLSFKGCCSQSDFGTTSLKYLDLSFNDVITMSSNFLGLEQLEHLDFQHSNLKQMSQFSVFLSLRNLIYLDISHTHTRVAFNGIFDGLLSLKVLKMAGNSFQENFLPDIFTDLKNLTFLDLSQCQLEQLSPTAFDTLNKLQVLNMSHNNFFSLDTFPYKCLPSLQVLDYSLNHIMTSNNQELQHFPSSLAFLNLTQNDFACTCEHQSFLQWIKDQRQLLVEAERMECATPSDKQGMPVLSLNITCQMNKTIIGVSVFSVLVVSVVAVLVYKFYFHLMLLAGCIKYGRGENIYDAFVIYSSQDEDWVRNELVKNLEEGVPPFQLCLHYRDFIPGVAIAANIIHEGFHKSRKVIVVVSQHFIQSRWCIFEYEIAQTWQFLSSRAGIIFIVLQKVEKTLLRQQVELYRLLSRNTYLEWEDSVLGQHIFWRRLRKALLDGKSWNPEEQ

[4] = target: T1, soluble histidine-tagged form of human …; assay: competitive ELISA, as retold in Example 9 (Table 8 prints 39 for this clone)
Description: Briefly, supernatants from transfected cells were incubated overnight at 4° C. with ImmunoPure (G) IgG binding buffer (Pierce, Rockford Ill.). Samples were then passed over Protein G-Sepharose 4B fast flow columns and the IgG consequently purified using elution buffer. The eluted IgG fraction was then dialyzed against PBS and the IgG content quantified by absorption at 280 nm. Purity and IgG integrity were verified by SDS-PAGE. Relative binding potency of 1E11 variants was assessed by competitive ELISA. Briefly, 15C1 antibody was coated overnight in a 96-well Maxisorp plate and then blocked with PBS-BSA. The 15C1 reference antibody and affinity matured variants of 1E11 were added to the plate at a fixed concentration and a 3.5-fold serial dilution of the samples was performed. Then, soluble histidine-tagged form of human TLR4/MD2 complex was added to the plate at a fixed concentration. After incubation one hour at 37° C., the plate was washed and a solution of Penta-His-HRP antibody was distributed, this step was followed by an additional incubation time of one hour at 37° C. Finally, the plate was washed and TMB was added for colorimetric revelation, the enzymatic reaction is stopped by H₂SO₄ solution. The results were determined according to the absorbance at 450 nm. The relative binding potency was calculated by dividing the reference EC₅₀ with affinity matured variants EC₅₀ (Table 8). […]

[5] = target: T1, soluble histidine-tagged form of human …; assay: competitive ELISA; coated 15C1 as competitor, soluble His-tagged human TLR4/MD2, Penta-His-HRP
Description: as §1

[6] = target: T2, cynomolgus monkey TLR4 expressed on …; assay: flow cytometry; purified IgG on CHO cells expressing cynomolgus TLR4
Description: 10⁵ CHO cells or CHO cells expressing the cynomolgus monkey TLR4 were incubated in phosphate-buffered saline, 2% bovine serum albumin with different concentrations of purified antibodies selected by FMAT (1A1, 1A6, 1B12, 1C7, 1C10, 1C12, 1D10, 1E11, 1G12) with 15C1 as control. Cells were washed in phosphate-buffered saline, 2% bovine serum albumin and incubated in Alexa Fluor® 647 goat anti human IgG (H+L) (1:200; Invitrogen). Cells were analyzed using a FACS calibur cytometer (BD Biosciences).

[7] = target: T1, soluble histidine-tagged form of human …; assay: competitive ELISA; lower end of the range, tied to 1E11.C4 by Table 8 (2.5 there)
Description: The VH and VL cDNA sequences in their appropriate expression vectors were transfected into mammalian cells using the Fugene 6 Transfection Reagent (Roche, Basel, Switzerland). Briefly, Peak cells were cultured in 6-well plates at a concentration of 6×10⁵ cells per well in 2 mL culture media containing fetal bovine serum. The expression vectors, encoding the candidate VH and VL sequences, were co-transfected into the cells using the Fugene 6 Transfection Reagent according to manufacturer's instructions. One day following transfection, the culture media was aspirated, and 3 mL of fresh serum-free media was added to cells and cultured for three days at 37° C. Following three days culture period, the supernatant was harvested for IgG purified on protein G-Sepharose 4B fast flow columns (Sigma, St. Louis, Mo.) according to manufacturer's instructions. Briefly, supernatants from transfected cells were incubated overnight at 4° C. with ImmunoPure (G) IgG binding buffer (Pierce, Rockford Ill.). […] The eluted IgG fraction was then dialyzed against PBS and the IgG content quantified by absorption at 280 nm. […] Relative binding potency of 1E11 variants was assessed by competitive ELISA. […] The results were determined according to the absorbance at 450 nm. The relative binding potency was calculated by dividing the reference EC₅₀ with affinity matured variants EC₅₀ (Table 8).

T1 sequence (Q9Y6Y9 19-160, one chain of several): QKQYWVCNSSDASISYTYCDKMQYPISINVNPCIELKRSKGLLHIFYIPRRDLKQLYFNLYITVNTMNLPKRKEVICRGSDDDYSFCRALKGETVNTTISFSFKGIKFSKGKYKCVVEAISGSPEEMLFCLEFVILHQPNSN

- IC50, inhibition of IL-6 production in human whole blood assay [1]: 0.05 µg/mL
- fold better than 15C1 at blocking human TLR4 (human whole blood assay) [1]: 5 fold
- Relative binding potency increase [2]: 39 fold
- binding result [3]: binds
- increase in binding potency (fold, compared to 15C1) [4]: 40 fold
- EC50 [5]: 0.016 µg/mL
B1: 1E11.C2E3 antibody (IgG1) (antibody, V domains shown)
VH: QVQLQESGPGLVKPSDTLSLTCAVSGYPIRFGYSWHWIRQPPGKGLEWMGYIHYSGYTDFNPSLKTRITISRDTSKNQFSLKLSSVTAVDTAVYYCARKDSGNYFPYWGQGTLVTVSS
VL: EIVLTQSPDFQSVTPKEKVTITCRASQSISDHLHWYQQKPDQSPKLLIKYASHAISGVPSRFSGSGSGTDFTLTINSLEAEDAATYYCQQGYDFPLTFGGGTKVEIK

- IC50, inhibition of IL-6 production in human whole blood assay [1]: ~0.22 µg/mL
- binding result [6]: no binding
- EC50 [5]: 0.63 µg/mL
B2: humanized anti-TLR4 antibody 15C1 (antibody, V domains shown)
VH: B1 VH with P28S, R30T, F31G, S101P, G102S, N103D, Y104A
VL: B1 VL with Y92H, D93S
notes: also called 15C1 Mab; parental antibody 15C1

- Relative binding potency increase [2]: 2.5 fold
- binding result [3]: binds
- EC50 [5]: 0.251 µg/mL
- relative binding potency (fold-increase compared to 15C1) [7]: 3 fold
B3: 1E11.C4 antibody (IgG1) (antibody, V domains shown)
VH: B1 VH with Y27F, R30G, F31Q
VL: B1 VL with Y92H, D93S
